Assay results: article PMC6946681, “The gastrointestinal pathogen Campylobacter jejuni metabolizes sugars with potential help from commensal Bacteroides vulgatus” (Communications Biology, 2020)

How the values were obtained:
[1] = target: Campylobacter jejuni FucX (Cj0485), C-terminally six-histidine tagged (Campylobacter jejuni NCTC11168); assay: crystal structure; FucX pre-incubated with excess NADP+, space group P1, four monomers in the asymmetric unit; 23-26% PEG 4000, 0.08 M Tris pH 8.5, 0.15 M MgCl2, 20% glycerol; 2.15 Å
[2] = target: Campylobacter jejuni FucX (Cj0485), C-terminally six-histidine tagged (Campylobacter jejuni NCTC11168); assay: crystal structure; apo FucX, space group C222(1), two monomers in the asymmetric unit, tetramer generated by the crystallographic lattice; crystals grown at 18 °C in 3.4 M 1,6-hexanediol, 0.1 M Tris pH 8.5, 0.2 M MgCl2; 1.60 Å
[3] = system: NC(=O)c1ccc[n+]([C@@H]2O[C@H](COP(=O)(O)OP(=O)(O)OC[C@H]3O[C@@H](n4cnc5c(N)ncnc54)[C@H](O)[C@@H]3O)[C@@H](O)[C@H]2O)c1; assay: purified protein; conditions: L-fucose in excess, 50 mM Tris-HCl pH 7.5, 1 mM Mg2+, room temperature, varied: cofactor
[4] = system: C[C@@H]1OC(O)[C@@H](O)[C@H](O)[C@@H]1O; assay: purified protein; conditions: NADP+ in excess, 50 mM Tris-HCl pH 7.5, 1 mM Mg2+, room temperature
[5] = system: OC1OC[C@@H](O)[C@@H](O)[C@@H]1O; assay: purified protein; conditions: NADP+ in excess, 50 mM Tris-HCl pH 7.5, 1 mM Mg2+, room temperature
[6] = system: NC(=O)c1ccc[n+]([C@@H]2O[C@H](COP(=O)(O)OP(=O)(O)OC[C@H]3O[C@@H](n4cnc5c(N)ncnc54)[C@H](OP(=O)(O)O)[C@@H]3O)[C@@H](O)[C@H]2O)c1; assay: purified protein; conditions: L-fucose in excess, 50 mM Tris-HCl pH 7.5, 1 mM Mg2+, room temperature, varied: cofactor

Question: How did the stoichiometry N [1] turn out when “Campylobacter jejuni FucX (Cj0485), C-terminally six-histidine tagged (enzyme)” was run?
Answer: 4

Question: What about the stoichiometry N [2] of the same substance?
Answer: 4

Question: “FucX (Cj0485) (Campylobacter jejuni subsp. jejuni NCTC 11168 = ATCC 700819)” was tested. Which Km [3] did it give?
Answer: 6050 ± 1080 µM

Question: What about the kcat [3] of the same substance?
Answer: 20.5 ± 2.1 s⁻¹

Question: What about the Km [4] of the same substance?
Answer: 233.8 ± 26.2 µM

Question: What about the kcat [4] of the same substance?
Answer: 26.3 ± 0.7 s⁻¹

Question: What about the Km [5] of the same substance?
Answer: 672.2 ± 82.8 µM

Question: And the kcat [5]?
Answer: 18.9 ± 0.8 s⁻¹

Question: What about the Km [6] of the same substance?
Answer: 9.9 ± 1.9 µM

Question: And the kcat [6]?
Answer: 16.5 ± 0.7 s⁻¹
